Here are results for one substance from PMC8022203 (ACS infectious diseases, 2021).

For data set [1], the system named is CC(=O)Nc1ccc(/C=N/NC(N)=S)cc1. Put plainly: purified protein. The note with it: pH 8.0; 37.0 °C.
For data set [2], the system named is CCN(CC)c1ccc2cc(-c3ccc(/C=N/NC(N)=S)s3)c(=O)oc2c1. Put plainly: purified protein. The settings on record: pH 8.0; 37.0 °C.

A word on the Km: it is the concentration of substrate that gives half-maximal velocity.

With EthA (Mycobacterium tuberculosis H37Rv), the figures for the Michaelis constant (Km) in data set [1] and in data set [2] were 153 ± 11 µM and 16 ± 2 µM, respectively.
